Tested on: MS2 coat protein
Test: apparent KD of MS2 coat protein; designed switch direction (-1 OFF switch, 1 ON switch): 1; higher = weaker reporter binding
How it was run: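 RNA switches sharing common flanks were transcribed by stalled E. coli RNA polymerase on Illumina chips. A doubling series of SNAP-549-labelled MS2 coat protein, from 0.7 or 1.5 nM to 3 µM, was applied in Tris-HCl pH 7.5 buffer with KCl, MgCl2, BSA, DTT, tRNA and Tween-20. Each step lasted 0.8–1.5 h at the bottom of the series and 10–20 min at the top. Normalised cluster fluorescence was curve-fitted, giving apparent KD as the per-design median over clusters.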

[1] = input ligand: microRNA oligo, concentration not stated
[2] = Eterna round: R95, input ligand: FMN 200 uM
[3] = Eterna round: R95, input ligand: microRNA oligo, concentration not stated
[4] = Eterna round: R95, input ligand: none

Sequence	apparent KD of MS2 coat protein (input ligand: FMN 200 uM) [µM]	apparent KD of MS2 coat protein [1] [µM]	apparent KD of MS2 coat protein (input ligand: none) [µM]	apparent KD of MS2 coat protein [2] [µM]	apparent KD of MS2 coat protein [3] [µM]	apparent KD of MS2 coat protein [4] [µM]
CCAAAUUGAAUCCACAUGAGGAUCACCCAUGUCCAACCGGUCUAGGAUAUCACAGCAAGCGCGUGUGAGAAGGAGAAAACAAGC [Eternabot solution 34] (Eterna round: R96, puzzle: Same State NG 3)	0.0421	0.021	0.0434			
CCAACGUACAAUUUAGAUCUACAUGAGGAUCACCCAUGUACGGAGGAUAUCAGCUCGAAUAGAGCUGAGAAGGCCGAAUUAAUU [SSNG3/2-A1] (Eterna round: R96, puzzle: Same State NG 3)		0.248				
CCACUCUGCGGAGGAUAUGGGCCUGCCCGGGAUAACGGGCCUAAUACAUGAGGAUCACCCAUGUCCCAGAAGGCCGCUAGAGCC [Xeusza] (Eterna round: R96, puzzle: Same State NG 2)	0.0188	0.0924	0.139			
CCCAUGAAUAGUCAGGAUAUACGAUUUUAUACAUGAGGAUCACCCAUGUUAAGACUCCUCAAUAAGUAGAAGGGACUAUUUAUAA [Tesla Same State 2] (puzzle: Same State 2)				0.154	0.144	0.103
CCCUCACAUGAGGAUCACCCAUGUCCUAGCCCGUCAGGAUAUAGCCCGCAUCCGCUGCGGCUAGAAGGGACAGCUG [JR_SS001_Sub611] (Eterna round: R96, puzzle: Same State 1)	0.177	0.152	0.232			
CCCUUCGGCACAUGAGGAUCACCCAUGUUUUAGUGGAAGAGGUAGGAUAUGGCUGGGAGCAGAAGCCAGAAGGACCAAAUAAAU [Attiatan] (Eterna round: R96, puzzle: Same State NG 3)	0.0221	0.019	0.0098			
CCGAUUGAUGGAGGAUAUGGAGCCUUAUUGGCUCCAGAAGGCUAAUAACAUGAGGAUCACCCAUGUCGGCGGUCUAAUGACCGA [Eli NG1ss - 54] (Eterna round: R96, puzzle: Same State NG 1)	0.0361	0.0575	0.0691			
CCGCAUUCAGCAGGAUAUCUCAACCGGAAGAUGAGAGAAGGGUUGAUUACAUGAGGAUCACCCAUGUCCAAGCAUGCGAGAGCC [Eternabot solution 23] (Eterna round: R96, puzzle: Same State NG 1)	0.5	0.754	0.188			
CCGGCCACACAACAAGGCCAACAUGAGGAUCACCCAUGUACACAGGAUAUCGGCAGCCAAGGCUCCGAGAAGGGUGGUUCAAUU [Beage] (Eterna round: R96, puzzle: Same State NG 3)	0.438	0.145	0.234			
CCGGUACAUGAGGAUCACCCAUGUUGCGGCAGGACAGGAUAUGGGCGAGAAUAUGUAGGCCCAGAAGGGUCAUCAC [Qure] (puzzle: Same State 1)				0.0241	0.0421	0.0389
CCGUAGAUGGAAGGAUAUGGAGCCUUAUUGGCUCCAGAAGGUUCAAAACAUGAGGAUCACCCAUGUACGGCGGUCAAUAGACCG [Eli NG1ss - 82] (Eterna round: R96, puzzle: Same State NG 1)	0.111	0.226	0.245			
CCGUAGAUGGAAGGAUAUGGAGCCUUAUUGGCUCCAGAAGGUUCAAUACAUGAGGAUCACCCAUGUUCGGCGGUCAAUAGACCG [Eli NG1ss - 81] (Eterna round: R96, puzzle: Same State NG 1)	0.0269	0.032	0.0666			
CCUGCAAUUAACGCCUACAUGAGGAUCACCCAUGUAUGUAGGCAGGAUAUCGUUUGCUUUGCAAACGAGAAGGGCUGUAGUAGC [salish99_SSNG3_R04_002] (Eterna round: R96, puzzle: Same State NG 3)	0.0187	0.0154	0.0189			
CGAUGAAACAAAGGAAGAAGAGUUGAAGUACAUGAGGAUCACCCAUGUCAGAGCUUUUUGCUCGUCAUGAACAGGAA [JR_SHM208a_Sub004] (puzzle: Sensor for hsa-mir-208a)				0.0359	0.0244	0.0549
CGGCGCUGUUGAGAGGAUAUGCGGUGAUGGACAUGAGGAUCACCCAUGUUAGCGAUAGCAUUACGGUAGAAGGCUCUACAGCUGU [Soteed Omei mod 11] (puzzle: Same State 2)					0.0217	
CGUCCGGCCUGUGCUGGCCGGUUGCUUGUACAUGAGGAUCACCCAUGUUCUUGUGCAGGCUUUUUGCUCGUCUUGUG [salish99_mir208a_018] (puzzle: Sensor for hsa-mir-208a)				0.212	0.025	0.265

Sequence	apparent KD of MS2 coat protein (input ligand: FMN 200 uM) [µM]	apparent KD of MS2 coat protein [1] [µM]	apparent KD of MS2 coat protein (input ligand: none) [µM]	apparent KD of MS2 coat protein [2] [µM]	apparent KD of MS2 coat protein [3] [µM]	apparent KD of MS2 coat protein [4] [µM]
CGUCGUUUGAUAGGAUAUCGCUUUACAUGAGGAUCGCCCAUGUUUACCACGCUGGUUUUUCUUUCCGAGAAGGAUUCUGAUGUU [salish99_SSNG02_r04_027] (Eterna round: R96, puzzle: Same State NG 2)	0.0284	0.0105	0.00485			
CGUCGUUUGUUAGGAUAUCGCUAUACAUGAGGAUCACCCAUGUUUACCACGCUGGUUUUUCAUACCGAGAAGGAUUCUGAUGUU [salish99_SSNG02_r04_019] (Eterna round: R96, puzzle: Same State NG 2)	0.0425	0.0316	0.0378			
CUAAAAGGAUGAGGAUAUGCAGAGGAUCACCCUGUAGAAGGCAACAGAUGAGGAUAUGCAGAGGAUCACCCUGUAGAAGGCAAC [pwkr ssNG DX.2] (Eterna round: R96, puzzle: Same State NG 1)	0.233	0.0568	0.0941			
CUAACAACAGGUUGCAGUGCUCGUCUCUAACAUGAGGAUCACCCAUGUAAUAGCCCGGUGGAAGCGCUCGGGUCACC [Tearor] (puzzle: Sensor for hsa-mir-208a)				0.0283	0.0345	0.0309
CUAUUAGGAUGAGGAUAUGCAGAGGAUCACCCUGUAGAAGGCAAUAGAUGAGGAUAUGCAGAGGAUCACCCUGUAGAAGGCAAC [pwkr ssNG DX.3] (Eterna round: R96, puzzle: Same State NG 1)	0.423	0.0989	0.177			
CUCCAUUGGGUAGGAUAUCUAGGAUAUGGGAAAGACUAAGUCUGUAGGUCACCUAACCCAGAUGGAGAGAAGGACCCAACUCUC [pwkr ssNG2 2FMN + F9.41] (Eterna round: R96, puzzle: Same State NG 2)	0.00817	0.00207	0.0123			
CUCCGGAAGCGAGGAUAUGCAGAGGAUCACCCUGCAGAAGGCGCCCUUGCGAGGAUAUGCAGAGGAUCACCCUGCAGAAGGCGC [pwkr ssNG DX.30] (Eterna round: R96, puzzle: Same State NG 1)	0.0162	0.0154	0.028			
CUGAGCAAGCAAGGAUAUCACGUCGUUUAGACGUGAGAAGGUGCUCCUUACAUGAGGAUCACCCAUGUAUAACAUGAAGCUCAG [SSNG1/10-A3] (Eterna round: R96, puzzle: Same State NG 1)	0.15	0.273	0.87			
CUGAGCAAUCAAGGAUAUCACGUCGAUUAGACGUGAGAAGGUGAUCAUUACAUGAGGAUCACCCAUGUAUUACAUGGAGCUCAG [Brourd's SSNG1/1-A2 mod 2] (Eterna round: R96, puzzle: Same State NG 1)		0.833				
CUGAGCAAUCUAGGAUAUCACGUCGAAUAGACGUGAGAAGGAGAUCAUAACAUGAGGAUCACCCAUGUAUUACAUGAAGCUCAG [SSNG1/7-A1] (Eterna round: R96, puzzle: Same State NG 1)	0.0134	0.0116	0.0179			
GAAAAGGCAACGCAGGAUAUGAAAGGUGAAACAUGAGGAUCACCCAUGUGCUACCUUCCGAUAAAUCAGAAGGGCGACGCCUAAA [Usbemaus] (puzzle: Same State 2)				0.00933	0.00896	0.0111
GACAAUCUAUCUGAGGAUAUCAUGAAUAAAACAUGAGGAUCACCCAUGUGCAGGAGAACUGCAAAUGAGAAGGCAGAUAGAUUGG [Mat - Same State 2 - Mod - D10] (puzzle: Same State 2)				0.01	0.0372	0.0269
GACAAUCUAUCUGAGGAUAUCAUGAAUAAAACAUGAGGAUCACCCAUGUGCAGGAUAACUGCAAAUGAGAAGGCAGAUAGAUUGU [Mat - Same State 2 - Mod - D7] (puzzle: Same State 2)				0.0123	0.024	0.0277
GACAGGCAGGCUUUUUCCUCGUAGUGUAAACAUGAGGAUCACCCAUGUGCUCGCCCUGGAUCUUUGGAUCGCAGGAA [Tibeon] (puzzle: Sensor for hsa-mir-208a)				0.353	0.124	0.407
GACCGCGAGGAAGGAUAUGGAGCCUUAUUGGCUCCAGAAGGUCCAUAAAGGACAUGAGGAUCACCCAUGUGGUGAGAAGCGGUC [Fiskers NG1ss - 27] (Eterna round: R96, puzzle: Same State NG 1)		0.788				
